Data: publication PMC3326525 (Nature structural & molecular biology, 2011)
Read-outs that look alike come from different tables or passages of the source. Blank lines part the entries; values can stand above or below the binder they belong to.

Legend:
ECFP-RNF4 (wild-type) [1] = target: T1, ECFP-RNF4 (wild-type) (Rattus norvegicus, UniProt O88846 1-194); assay: FRET or BRET
T1 sequence: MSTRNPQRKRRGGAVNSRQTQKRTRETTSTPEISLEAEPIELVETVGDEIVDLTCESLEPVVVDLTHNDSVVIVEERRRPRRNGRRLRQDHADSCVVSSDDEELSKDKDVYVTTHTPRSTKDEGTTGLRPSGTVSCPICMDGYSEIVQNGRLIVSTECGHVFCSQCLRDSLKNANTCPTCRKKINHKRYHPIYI

ECFP-RNF4 (wild-type) [2] = target: T1, ECFP-RNF4 (wild-type); assay: FRET or BRET; remark: listed apart in the source
[3] = target: the molecule itself
MBP-RNF4 (wild-type) = target: T2, MBP-RNF4 (wild-type) (Rattus norvegicus, UniProt O88846 1-194); assay: pull-down
T2 sequence: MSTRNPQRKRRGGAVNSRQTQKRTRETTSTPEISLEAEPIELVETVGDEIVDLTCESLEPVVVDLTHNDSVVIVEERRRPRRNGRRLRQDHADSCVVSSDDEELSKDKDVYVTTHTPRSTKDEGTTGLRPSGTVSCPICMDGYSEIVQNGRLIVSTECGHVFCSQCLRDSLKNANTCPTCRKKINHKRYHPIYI

B1: YFP-RING domain of RNF4 (wild-type) (domain or fragment)
chain: VSCPICMDGYSEIVQNGRLIVSTECGHVFCSQCLRDSLKNANTCPTCRKKINHKRYHPIYI
binding result (ECFP-RNF4 (wild-type) [1]): binds

B2: YFP-RING M140A R181A (domain or fragment)
chain: VSCPICADGYSEIVQNGRLIVSTECGHVFCSQCLRDSLKNANTCPTCAKKINHKRYHPIYI
binding result (ECFP-RNF4 (wild-type) [2]): binds

B4: RNF4 L152A (natural protein)
chain: MSTRNPQRKRRGGAVNSRQTQKRTRETTSTPEISLEAEPIELVETVGDEIVDLTCESLEPVVVDLTHNDSVVIVEERRRPRRNGRRLRQDHADSCVVSSDDEELSKDKDVYVTTHTPRSTKDEGTTGLRPSGTVSCPICMDGYSEIVQNGRAIVSTECGHVFCSQCLRDSLKNANTCPTCRKKINHKRYHPIYI
stoichiometry N [3]: 2

Second part, the binder after the results:

binding result (ECFP-RNF4 (wild-type) [1]): binds
B3: RNF4 Y193H (natural protein)
chain: MSTRNPQRKRRGGAVNSRQTQKRTRETTSTPEISLEAEPIELVETVGDEIVDLTCESLEPVVVDLTHNDSVVIVEERRRPRRNGRRLRQDHADSCVVSSDDEELSKDKDVYVTTHTPRSTKDEGTTGLRPSGTVSCPICMDGYSEIVQNGRLIVSTECGHVFCSQCLRDSLKNANTCPTCRKKINHKRYHPIHI

binding result (MBP-RNF4 (wild-type)): binds
B5: UbcH5a (N77A C85S)~Ub oxyester (complex)
chain 1: not shown
chain 2: […]
